Columns and labels:
Assay type in all cases: biochemical
Conditions in all cases: 1 hour at 37° C.
human HNF-4α = assay: in vitro protein degradation test of HNF-4α by calpain (Western blotting)
Method: Using the HNF-4α expression plasmid, in vitro synthesis of HNF-4α protein was conducted using the TNT T7 Quick Coupled Transcription/Translation System (Promega, Inc.). That is, the HNF-4α expression plasmid was mixed with TNT T7 Quick Master Mix, and then incubated for 1.5 hours at 30° C. in the presence of methionine to synthesize HNF-4α.
The in vitro protein degradation test was carried out by adding m-calpain extracted from rabbit muscle (Protease, Calcium-Activated Neutral (calpain), Sigma Chemical Co.) at a final concentration of 50 μg/mL to the synthesized HNF-4α, and then incubating for 1 hour at 37° C. in the presence of 200 mM Tris-HCl (pH 7.8)/1 mM dithiothreitol (DTT)/6 mM CaCl2. To conduct a degradation test in the absence of calcium, a test sample was prepared by adding 10 mM ethylenediaminetetraacetic acid (EDTA) instead of 6 mM CaCl2, and the sample was then incubated in a similar manner. The samples after incubation were added to an equal volume of 2× sodium dodecyl sulfate (SDS) sample buffer (4% SDS/125 mM Tris-HCl, pH 6.8/20% glycerol/0.01% bromphenol blue (BPB)/10% β-mercaptoethanol), heated for 5 minutes, and subjected to 10% SDS-PAGE for separation. Thereafter, Western blotting was carried out to detect HNF-4α using anti-HNF-4α antibody/HNF-4α (C-19) antibody (Santa Cruz Biotechnology, Inc.) and anti-Xpress antibody (Invitrogen, Inc.). An ECL Western blotting detection kit (Amersham pharmacia biotech) was used for the detection.
The final concentration of human m-calpain in the reaction system was 2.33 mg/mL as the protein concentration of the lysate of sf-9 cells that expressed human m-calpain. The final concentration of rat m-calpain in the reaction system was 59 units/mL. A degradation test was also conducted in the same manner without addition of calpain. Further, to test for degradation in the absence of calcium, a sample was prepared by adding 10 mM of EDTA instead of 6 mM CaCl2, and a degradation test was conducted with the sample in a similar manner. The samples after incubation were added to an equal volume of 2×SDS sample buffer, heated for 5 minutes, and subjected to 5-20% SDS-PAGE for separation. Thereafter, Western blotting was carried out to detect HNF-4α using anti-HNF-4α antibody/HNF-4α (C-19) antibody. An ECL Western blotting detection kit was used for the detection.
An in vitro protein degradation test was carried out by adding μ-calpain to HNF-4α at a final concentration of 50 units/mL, and incubating for 1 hour at 37° C. in the presence of 200 mM Tris-HCl (pH 7.8)/1 mM DTT/6 mM CaCl2. […]

human HNF-1α = assay: in vitro protein degradation test of HNF-1α by calpain (Western blotting)
Method: Using the HNF-1α expression plasmid, in vitro synthesis of HNF-1α protein was carried out using the TNT T7 Quick Coupled Transcription/Translation System. That is, the HNF-1α expression plasmid was mixed with TNT T7 Quick Master Mix, and then incubated for 1.5 hours at 30° C. in the presence of methionine to synthesize HNF-1α. Thereafter, immunoprecipitation was conducted by adding anti-Xpress antibody to the synthesized HNF-1α, mixing by inversion for 1 hour at 4° C., and then adding Protein G Sepharose 4 Fast Flow and mixing by inversion for an additional 1 hour at 4° C. Subsequently, Protein G Sepharose was collected by centrifugation and washed 3 times with washing buffer (50 mM Tris-HCl, pH 7.5/150 mM NaCl/0.2% Nonidet P-40), followed by rinsing with 200 mM Tris-HCl (pH 7.8) to obtain the HNF-1α sample as 20% slurry (hereunder, referred to as “HNF-1α slurry”).
Protein degradation tests were carried out in vitro by adding μ-calpain or m-calpain to the HNF-1α slurry, and incubating for 1 hour at 37° C. in the presence of 200 mM Tris-HCl (pH 7.8)/1 mM DTT/6 mM CaCl2. The final concentrations of the respective calpain in the reaction system were as follows: 50 units/mL of human μ-calpain; 50 μg/mL of rabbit m-calpain as a protein concentration; and 59 units/mL of rat m-calpain. For a control experiment, an HNF-1α slurry was incubated without the addition of calpain in a similar manner in the presence of calcium. Further, to test for protein degradation in the absence of calcium, a sample was prepared by adding 10 mM of EDTA instead of 6 mM of CaCl2 and was incubated in the same manner. The samples after incubation were added to an equal volume of 2×SDS sample buffer, heated for 5 minutes, and then subjected to 5-20% SDS-PAGE for separation. Thereafter, Western blotting was carried out to detect HNF-1α using anti-Omni/M21 antibody (Santa Cruz Biotechnology, Inc.), which recognizes a His-Xpress region, and anti-HNF-1α antibody/HNF-1α (C-19) antibody (Santa Cruz Biotechnology, Inc.). An ECL Western blotting detection kit was used for conducting the detection.
In-vitro protein degradation tests were carried out in the same manner as in Example 7, but the lysate of sf-9 cells that coexpressed m-calpain with calpain small subunit 1 was used as m-calpain. The final concentration of the lysate of the sf-9 cells that expressed these proteins in the reaction system was 1.75 mg/mL as a protein concentration. The final concentration of rat m-calpain in the reaction system was 59 units/mL. Detection of HNF-1α was performed in the same manner as Example 7, but only anti-HNF-1α antibody/HNF-1α (C-19) antibody was used.

human IPF-1 = assay: in vitro protein degradation test of IPF-1 by calpain (Western blotting)
Method: Using the IPF-1 expression plasmid, synthesis of IPF-1 protein was carried out in vitro using the TNT T7 Quick Coupled Transcription/Translation System. That is, the IPF-1 expression plasmid was mixed with TNT T7 Quick Master Mix, and then incubated for 1.5 hours at 30° C. in the presence of methionine to synthesize IPF-1.
Protein degradation tests were carried out in vitro by adding μ-calpain or m-calpain to IPF-1, and incubating for 1 hour at 37° C. in the presence of 200 mM Tris-HCl (pH 7.8)/1 mM DTT/6 mM CaCl2. The final concentrations of each calpain in the reaction systems were as follows: 50 units/mL of human μ-calpain; 50 μg/mL of rabbit m-calpain as a protein concentration, and 59 units/mL of rat m-calpain. For a control experiment, IPF-1 was incubated without addition of calpain in the same manner in the presence of calcium. Further, to test for protein degradation in the absence of calcium, a sample was prepared by adding 10 mM of EDTA instead of 6 mM of CaCl2, and incubated in the same manner. The samples after incubation were added to an equal volume of 2×SDS sample buffer, heated for 5 minutes, and subjected to 5-20% SDS-PAGE for separation. Thereafter, Western blotting was carried out to detect IPF-1 using anti-Xpress antibody and anti-IPF1 (PDX-1) antibody/N-18 (Santa Cruz Biotechnology, Inc.). The ECL Western blotting detection kit was used for conducting the detection.
In-vitro protein degradation tests were carried out in the same manner as Example 10, but the lysate of sf-9 cells that coexpressed m-calpain with calpain small subunit 1 was used as m-calpain. The final concentration of the lysate of sf-9 cells that expressed these proteins in the reaction system was 2.33 mg/mL as a protein concentration. The final concentration of rat m-calpain in the reaction system was 59 units/mL. Detection of IPF-1 was performed in the same manner as Example 10, but only anti-IPF-1 antibody/N-18 was used.

[1] = in the absence of calcium (10 mM EDTA instead of CaCl2)
[2] = in the presence of calcium (6 mM CaCl2), Western blotting

Molecule	degradation of HNF-4α (human HNF-4α; [1])	degradation of HNF-4α (human HNF-4α; [2])	degradation of HNF-1α (human HNF-1α; [1])	degradation of HNF-1α (human HNF-1α; [2])	degradation of IPF-1 (human IPF-1; [1])	degradation of IPF-1 (human IPF-1; [2])
human μ-calpain: μ-Calpain extracted from human erythrocytes (Calpain 1, human erythrocytes; Calbiochem, Inc.) (protein, UniProt P07384 2-714; P04632 1-268, looked up) Calpain-1 catalytic subunit: SEEIITPVYCTGVSAQVQKQRARELGLGRHENAIKYLGQDYEQLRVRCLQSGTLFRDEAFPPVPQSLGYKDLGPNSSKTYGIKWKRPTELLSNPQFIVDGATRTDICQGALGDCWLLAAIASLTLNDTLLHRVVPHGQSFQNGYAGIFHFQLWQFGEWVDVVVDDLLPIKDGKLVFVHSAEGNEFWSALLEKAYAKVNGSYEALSGGSTSEGFEDFTGGVTEWYELRKAPSDLYQIILKALERGSLLGCSIDISSVLDMEAITFKKLVKGHAYSVTGAKQVNYRGQVVSLIRMRNPWGEVEWTGAWSDSSSEWNNVDPYERDQLRVKMEDGEFWMSFRDFMREFTRLEICNLTPDALKSRTIRKWNTTLYEGTWRRGSTAGGCRNYPATFWVNPQFKIRLDETDDPDDYGDRESGCSFVLALMQKHRRRERRFGRDMETIGFAVYEVPPELVGQPAVHLKRDFFLANASRARSEQFINLREVSTRFRLPPGEYVVVPSTFEPNKEGDFVLRFFSEKSAGTVELDDQIQANLPDEQVLSEEEIDENFKALFRQLAGEDMEISVKELRTILNRIISKHKDLRTKGFSLESCRSMVNLMDRDGNGKLGLVEFNILWNRIRNYLSIFRKFDLDKSGSMSAYEMRMAIESAGFKLNKKLYELIITRYSEPDLAVDFDNFVCCLVRLETMFRFFKTLDTDLDGVVTFDLFKWLQLTMFA Calpain small subunit 1: MFLVNSFLKGGGGGGGGGGGLGGGLGNVLGGLISGAGGGGGGGGGGGGGGGGGGGGTAMRILGGVISAISEAAAQYNPEPPPPRTHYSNIEANESEEVRQFRRLFAQLAGDDMEVSATELMNILNKVVTRHPDLKTDGFGIDTCRSMVAVMDSDTTGKLGFEEFKYLWNNIKRWQAIYKQFDTDRSGTICSSELPGAFEAAGFHLNEHLYNMIIRRYSDESGNMDFDNFISCLVRLDAMFRAFKSLDKDGTGQIQVNIQEWLQLTMYS	not observed	observed	not degraded	observed	not degraded	observed
rat m-calpain: rat m-calpain (Calpain 2, rat recombinant, E. coli, Calbiochem, Inc.), positive control (protein) MAGIAMKLAKDREAAEGLGSHERAIKYLNQDYETLRNECLEAGALFQDPSFPALPSSLGFKELGPYSSKTRGIEWKRPTEICADPQFIIGGATRTDICQGALGDCWLLAAIASLTLNEEILARVVPLDQSFQENYAGIFHFQFWQYGEWVEVVVDDRLPTKDGELLFVHSAEGSEFWSALLEKAYAKINGCYEALSGGATTEGFEDFTGGIAEWYELRKPPPNLFKIIQKALEKGSLLGCSIDITSAADSEAVTYQKLVKGHAYSVTGAEEVESSGSLQKLIRIRNPWGQVEWTGKWNDNCPSWNTVDPEVRANLTERQEDGEFWMSFSDFLRHYSRLEICNLTPDTLTCDSYKKWKLTKMDGNWRRGSTAGGCRNYPNTFWMNPQYLIKLEEEDEDDEDGERGCTFLVGLIQKHRRRQRKMGEDMHTIGFGIYEVPEELTGQTNIHLSKNFFLTTRARERSDTFINLREVLNRFKLPPGEYVLVPSTFEPHKNGDFCIRVFSEKKADYQTVDDEIEANIEEIEANEEDIGDGFRRLFAQLAGEDAEISAFELQTILRRVLAKREDIKSDGFSIETCKIMVDMLDEDGSGKLGLKEFYILWTKIQKYQKIYREIDVDRSGTMNSYEMRKALEEAGFKLPCQLHQVIVARFADDELIIDFDNFVRCLVRLEILFKIFKQLDPENTGTIQLDLISWLSFSVL			not degraded	observed	not degraded	observed

— patent US20070004636A1, “Method of degrading transcriptional factors of saccharometabolism-associated gene, method for inhibiting the degradation, and agent for inhibiting degradation and degradation inhibitor” (priority 2002, published 2007)
